The target in experiment [1] is T1, ZTNF4 (Homo sapiens (Human), UniProt Q9Y275 134-285, limits assumed, radioiodinated with 125I (Iodobeads) in the binding assays; unlabeled ZTNF4 used to determine nonspecific binding).
T1 construct: also called BAFF
The experiment in a line: competitive binding: TACI-Fc against plate-coated TACI-N for 125I-ZTNF4. The protocol: (§1) An N-terminal fragment of the TACI receptor, designated as “TACI-N,” was added to 96-well plates (100 μl at 0.1 μg/ml), and incubated overnight at 4° C. The plates were washed, blocked with Superblock (Pierce), and washed again. […] After incubation, the plates were washed and counted. Each determination was performed in triplicate.

Experiment [2] concerns the target T1, ZTNF4. The experiment is described as follows: solution binding: 0.05 nM TACI-Fc with 0.4 pM to 1.5 nM 125I-ZTNF4, Pansorbin precipitation. The protocol: At a concentration of 0.05 nM, each TACI-Fc construct was incubated with 0.4 pM to 1.5 nM ¹²⁵I-ZTNF4 for 30 minutes at room temperature in a total volume of 0.25 ml/tube. A Pansorbin (Staph A) suspension was added to each tube, and after 15 minutes, the samples were centrifuged, washed twice, and the pellets counted. Nonspecific binding was determined by the addition of 130 nM unlabeled ZTNF4 to the ¹²⁵I-ZTNF4/TACI-Fc mix. Specific binding was calculated by subtracting the cpm bound in the presence of unlabeled ZTNF4 from the total cpm bound at each concentration of ¹²⁵I-ZTNF4. Each determination was performed in triplicate. Binding constants were calculated using GraphPad Prism software (MacIntosh v. 3.0).

Experiment [3] addresses T1, ZTNF4. The experiment is described as follows: competitive binding: TACI-Fc against plate-coated TACI-N for 125I-ZTNF4 (20 ng/ml); average of three experiments. On the procedure:
as §1

The Kd is the free concentration of one partner at which half of the binding sites on the other are occupied at equilibrium, for simple one-to-one binding. In general, IC50 refers to the point on the concentration scale where inhibition reaches its midpoint. Low readings indicate higher potency, high ones lower potency.

B1: TACI (d1-29, d120-154)-Fc5 (Fc fusion)
chain: AMRSCPEEQYWDPLLGTCMSCKTICNHQSQRTCAAFCRSLSCRKEQGKFYDHLLRDCISCASICGQHPKQCAYFCENKLRSPVNLPPELREPKSSDKTHTCPPCPAPEAEGAPSVFLFPPKPKDTLMISRTPEVTCVVVDVSHEDPEVKFNWYVDGVEVHNAKTKPREEQYNSTYRVVSVLTVLHQDWLNGKEYKCKVSNKALPSSIEKTISKAKGQPREPQVYTLPPSRDELTKNQVSLTCLVKGFYPSDIAVEWESNGQPENNYKTTPPVLDSDGSFFLYSKLTVDKSRWQQGNVFSCSVMHEALHNHYTQKSLSLSPGK
As for B1, the “concentration giving complete inhibition” value with ZTNF4 [1] was around 100 ng/mL. In the experiment with ZTNF4 [2], the Bmax stood at 0.021 nM and the Kd came to 0.092 nM. The IC50 in the experiment with ZTNF4 [3] came out at 2.21 nM.

B2: TACI (d1-29)-Fc5 (Fc fusion)
chain: AMRSCPEEQYWDPLLGTCMSCKTICNHQSQRTCAAFCRSLSCRKEQGKFYDHLLRDCISCASICGQHPKQCAYFCENKLRSPVNLPPELRRQRSGEVENNSDNSGRYQGLEHRGSEASPALPGLKEPKSSDKTHTCPPCPAPEAEGAPSVFLFPPKPKDTLMISRTPEVTCVVVDVSHEDPEVKFNWYVDGVEVHNAKTKPREEQYNSTYRVVSVLTVLHQDWLNGKEYKCKVSNKALPSSIEKTISKAKGQPREPQVYTLPPSRDELTKNQVSLTCLVKGFYPSDIAVEWESNGQPENNYKTTPPVLDSDGSFFLYSKLTVDKSRWQQGNVFSCSVMHEALHNHYTQKSLSLSPGK
notes: Made in CHO DG44 cells
With B2, the “concentration giving complete inhibition” value in the experiment with ZTNF4 [1] was around 100 ng/mL. Further, in the experiment with ZTNF4 [2], the Bmax was 0.023 nM and the affinity, expressed as Kd, was 0.134 nM. The molecule further yielded a half-maximal inhibitory concentration (IC50) with ZTNF4 [3] of 2.07 nM.

B3: TACI (d1-29, d107-154)-Fc5 (Fc fusion)
chain: AMRSCPEEQYWDPLLGTCMSCKTICNHQSQRTCAAFCRSLSCRKEQGKFYDHLLRDCISCASICGQHPKQCAYFCENEPKSSDKTHTCPPCPAPEAEGAPSVFLFPPKPKDTLMISRTPEVTCVVVDVSHEDPEVKFNWYVDGVEVHNAKTKPREEQYNSTYRVVSVLTVLHQDWLNGKEYKCKVSNKALPSSIEKTISKAKGQPREPQVYTLPPSRDELTKNQVSLTCLVKGFYPSDIAVEWESNGQPENNYKTTPPVLDSDGSFFLYSKLTVDKSRWQQGNVFSCSVMHEALHNHYTQKSLSLSPGK
Regarding B3, in the experiment with ZTNF4 [1], the “concentration giving complete inhibition” value is around 100 ng/mL. In the experiment with ZTNF4 [2], this molecule registered a Bmax of 0.01 nM and a Kd of 0.121 nM. The same molecule came in with an IC50 with ZTNF4 [3] of 4.95 nM.

B4: TACI (d1-29, d111-154)-Fc5 (Fc fusion)
chain: AMRSCPEEQYWDPLLGTCMSCKTICNHQSQRTCAAFCRSLSCRKEQGKFYDHLLRDCISCASICGQHPKQCAYFCENKLRSEPKSSDKTHTCPPCPAPEAEGAPSVFLFPPKPKDTLMISRTPEVTCVVVDVSHEDPEVKFNWYVDGVEVHNAKTKPREEQYNSTYRVVSVLTVLHQDWLNGKEYKCKVSNKALPSSIEKTISKAKGQPREPQVYTLPPSRDELTKNQVSLTCLVKGFYPSDIAVEWESNGQPENNYKTTPPVLDSDGSFFLYSKLTVDKSRWQQGNVFSCSVMHEALHNHYTQKSLSLSPGK
B4: in the experiment with ZTNF4 [1], the “concentration giving complete inhibition” value was around 100 ng/mL. In the experiment with ZTNF4 [2], this molecule yielded a Bmax of 0.018 nM and a Kd of 0.115 nM. This molecule also registered an IC50 with ZTNF4 [3] of 2.31 nM.

(Values after US20030103986A1 (ZymoGenetics, published 2003).)
